For 28 molecules, Kd results are on record in paper PMC11488661 (Science immunology, 2024).

The labels stand for the following.
B1: g5-D78-21_CLK19 (antibody, V domains shown)
VH: QVQLVQSGAEVKKPGASVKVSCKTSGYTFTGYFLHWVRQAPGQGLEWMGWINPNSGGINYAQKFQGRVTMTRDTSINTAYMELSRLRSDDTAVYYCTPVLTNFRWPFAFWGQGTLVTVSS
VL: DIQMTQSPSSLSASVGDRVTITCQASQDIKNYLNWYQQKPGTAPKLLIYDTSNLETGVPSRFSGSGSGTDFTFTISSLQPEDIATYYCQQYETFGPGTKVDIK
B2: GT8-D36-13_CLK09 (antibody, V domains shown)
VH: QVQLVQSGAEVKKPGASVKVSCKASGYTFTGYYIHWVRQAPGQGLKWMGWINPNSGGTNYAQKFQGRVTMTRDTSISTAYLELSRLRSDDTAVYYCARVEGLWTFDIWGQGTMVTVSS
VL: B1 VL with K30S, T42K, L46V, T51A, P80S, I83V, T93F, P96G, K99T, D101E
B3: GT8-D36-19_CLK09 (antibody, V domains shown)
VH: B2 VH with K12R, K46E, A61E
VL: B1 VL with K30S, T42K, T51A, P80S, T93F, P96G, D101E
B4: GT8-D36-20_CLK09 (antibody, V domains shown)
VH: B2 VH
VL: B1 VL with K30S, T42K, T51A, T72I, P80S, I83M, T93F, P96G, D101E
B5: g5-D78-6_CLK19 (antibody, V domains shown)
VH: B1 VH with N77H
VL: B1 VL with S65G
B6: GT8-D36-14_CLK09 (antibody, V domains shown)
VH: not shown
VL: B1 VL with K30S, T42K, T51A, T93F, P96G, D101E
B7: GT8-D36-15_CLK09 (antibody, V domains shown)
VH: B2 VH with Y32H, Y60N
VL: B1 VL with K30S, K39T, T42K, T51A, P80S, Y91F, T93F, P96G, D101E
B8: GT8-D36-17_CLK09 (antibody, V domains shown)
VH: B2 VH with T30S
VL: B1 VL with V15I, K30S, T42K, T51A, P80S, T93F, P96G, D101E
B9: GT8-D36-3_CLK09 (antibody, V domains shown)
VH: QVQLVQSGAEVKKPGASVKVSCKASGYTFTGYYMHWVRQAPGQGLEWMGWINPNSGGTNFAQKFQGRVTMTRDTSINTAYMELSRLRSDDSAVFYCARVESKIFDIWGQGTMVTVSS
VL: B1 VL with A25T, K30S, T42K, T51A, T93F, P96G, D101E
B10: GT8-D36-2_CLK09 (antibody, V domains shown)
VH: QVQLVQSGAEVKKPGASVKVSCKASGYTFTGYYMNWVRQAPGQGLEWMGWINPNSGGTNYAQQFQGRVTMTRDTSISTAYMELSRLKSDDTAVYYCARVDGKKKTFDIWGQGTMVTVSS
VL: B1 VL with K30S, T42K, T51V, D70A, T93F, P96G, D101E
B11: GT8-D36-21_CLK09 (antibody, V domains shown)
VH: B2 VH
VL: B1 VL with K30S, T42K, T51A, S76G, P80S, T93F, P96G, D101E
B12: g5-D78-5_CLK19 (antibody, V domains shown)
VH: B1 VH with T24A, G31D, S55R, I58V, V99I, P106R, A108D
VL: B1 VL with K30Q, T72I, T93A
B13: GT8-D36-5_CLK09 (antibody, V domains shown)
VH: not shown
VL: B1 VL with A25T, K30S, T42K, T51A, T93F, P96G, D101E
B14: GT8-D36-16_CLK09 (antibody, V domains shown)
VH: B2 VH
VL: B1 VL with K30S, T42K, L46V, T51A, P80S, T93F, P96G, D101E
B15: GT8-D36-10_CLK19 (antibody, V domains shown)
VH: QVQLVQSGAEVKKPGASVKVSCKASGYSFTGYYIHWVRQAPGQGLEWMGWTNPNSGGTNYAQKLEGRVTMTRDTSISTAYMELSRLRFDDTAVYYCALAGYRWRFDYWGQGTLVTVSS
VL: not shown
B16: g5-D78-3_CLK19 (antibody, V domains shown)
VH: QVQLVQSGAEVKKPGASVKVSCKASGYIFTDYNMHWVRQAPGQGLEWMGWINPSFGGRNIVQKFQGRVTMTRDTSISTAYMELSGLRSDDTAVYFCTPVLAPFRWPFAYWGQGTLVTVSS
VL: DIQMTQSPSSLSASVGDRVTITCQASQDINYLNWYQQKPGKAPKLLIYDASNLETGVPSRFSGSGSGTDFTFTISSLQPEDIATYYCQQYAAFGPGTKVDNK
B17: g5-D78-4_CLK19 (antibody, V domains shown)
VH: B16 VH with S54R, I76S
VL: B16 VL with N101I
B18: g5-D78-9_CLK19 (antibody, V domains shown)
VH: B16 VH with S54R
VL: B16 VL with N101I
B19: GT8-D36-18_CLK21 (antibody, V domains shown)
VH: QVQLVQSGAEVKKPGASVKVSCKTSGYTFTDYYMHWVRQAPGQGLEWMGWINPNSGGTNYAQRFQGRVTMTRDTSISTAYMELSRLRSDDTAVYYCASALRDSQPWWFDPWGQGTLVTVSS
VL: DIQMTQSPSTLSASVGDRVTITCRASQSISSWLAWYQQKPGKAPKLLIYKASSLESGVPSRFSGSGSGTEFTLTISSLQPDDFATYYCQQYDTFGGGTKVEIK
B20: GT8-D36-22_CLK21 (antibody, V domains shown)
VH: not shown
VL: B19 VL with K99R
B21: GT8-D36-8_CLK19 (antibody, V domains shown)
VH: QVQLVQSGAEVKMPGASVKVSCKASGYTFTGYYMHWVRQAPGQGLEWMGWINPNSGGTNYAQKFQGRVTMTRDTSISTAYMALNSLRSDDAAVYYCAIVLADYRWRFNYWGQGTLVTVSS
VL: not shown
B22: GT8-D36-6_CLK19 (antibody, V domains shown)
VH: QVQLVQSGAEVKKPGASVKVSCKASEYTFTGYYMHWVRQAPGQGLEWMGWINPNSGGTNYVQKFQDRVTMTRDTSINTAYMELSRLRSDDTAVYYCTPVLAYYRWRFDYWGQGTLVTVSS
VL: not shown
B23: g5-D78-22_CLK19 (antibody, V domains shown)
VH: QVQLVQSGAEVKKPGASVKVSCKASGYTFTGYYIHWVRQAPGHGLEWLGWINPNYGAVNYARKFQGRVTLTRDTSISTAFMELQSLRSDDTAIYHCTISLAGYRWGFDYWGQGALVTVSS
VL: DIQMTQSPSSLSAFVGDRVTITCQARLDIRYSLNWYQQKPGKAPNLLIYDVSNLEIGVPSRFSGSGSGTNFTFTISTLQPEDIATYYCQQYETFGPGTKVDIK
B24: g5-D78-7_CLK19 (antibody, V domains shown)
VH: B23 VH with H43Q, L48M, N54S, L70M, F80Y, S85R, S99A
VL: B23 VL with R30S, V51A, I56T, T74A, T77A, D101H
B25: g5-D78-23_CLK09 (antibody, V domains shown)
VH: QVQLVQSGAEVKKPGASVKVSCKASGYTFTDYYMHWVRQAPGQGLEWVGWINPNSGGMNFAQRFQDRVTMTRDTSISTAYMELSRLQSDDSAVYFCARVGGLWIGEKWTFDIWGQGTMVTVSS
VL: DIQMTQSPSSLSASVGDRVTITCQASQDISTYLNWYQQRPGKAPKLLIYGASNLATGVPSRFSGSGSGTDFTFTISSLQPEDIATYYCQLYEFFGGGTKVEIK
B26: g5-D78-8_CLK09 (antibody, V domains shown)
VH: QVQLVQSGAEVKKPGVSVKVSCKASGYTFNGYYMHWVRQAPGQGLEWMGWINPNNGGINIARRFEDRVTMTRDTSITTAHMELSRLRSDDSAVYYCARVGGLWFGEKWTFDIWGQGTMVTVSS
VL: B25 VL with A25T, Y32F, S52C, L90Q
B27: GT8-D36-4_CLK09 (antibody, V domains shown)
VH: not shown
VL: B25 VL with M4L, T31S, Y32S, R39K, P40T, L46V, G50D, A55E, L90Q
B28: CLK21 germline (GL) mAb (antibody, V domains shown)
VH: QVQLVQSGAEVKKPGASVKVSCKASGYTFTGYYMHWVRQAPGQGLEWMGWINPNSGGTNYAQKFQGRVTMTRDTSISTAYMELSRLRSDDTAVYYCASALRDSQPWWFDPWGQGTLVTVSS
VL: B19 VL with D92G

Positions count from the first letter of the chain named.

The target of one assay is eOD-GT8 (monomeric ligand) (Human immunodeficiency virus 1, …).
Assay: not given
Details: not given
For B1, binding was put at a Kd of 0.29 nM. On the same count and under the same terms, under B2 stands 534 nM; under B3, 0.958 nM. Turning to B4, the Kd (in general, the concentration at which binding is half-saturated) was 8.37 nM. Same read-out and setting: under B5 stands 0.26 nM; under B6, 26.9 nM. Same read-out and setting: the result for B7 reads 260 nM; that for B8, 4.09 nM; that for B9, 0.13 nM. B10 gave a dissociation constant (Kd) of 0.997 nM.

B11: the Kd amounted to 6.07 nM. On the same count and under the same terms, the result for B12 reads 2 nM; that for B13, 1.28 nM. On the same count and under the same terms, under B14 stands 37.9 nM; under B15, 4.3 nM; under B16, 0.87 nM.

For B17, the Kd is 2.1 nM.

For B18, binding was characterised by a dissociation constant (Kd) of 2.1 nM. This lies in the single-digit nanomolar range. The molecule B19 registered a Kd of 2.63 nM. B20: the Kd worked out at 2.94 nM. The Kd values of the last two molecules are within 1.5-fold of each other.

In the case of B21, binding was put at a Kd of 0.411 nM. With B22, the Kd worked out at 2.03 nM.

In turn, B23 yielded a Kd of 100 nM.

In turn, B24 registered a Kd of 23 nM. Still for that read-out and setting: under B25 stands 0.078 nM. B26 returned a Kd of 0.14 nM. The same measure, in the same setting: the result for B27 reads 0.0423 nM.

For another assay, the target named is T1, eOD-GT8 (monomeric ligand) (Human immunodeficiency virus 1, …).
T1 construct: also called eOD-GT8 ligand; GT8-prime ligand
Put plainly: SPR; Carterra LSA; kinetics and affinity of antibody–antigen interactions, methods as in Cottrell et al. (ref. 56); who was immobilised is not told (the antigens are called ligands); values for groups are geometric means over the mAbs. As to conditions: both partners purified. For orientation: Surface plasmon resonance follows binding to a sensor surface in real time, without labels.
B28 registered a Kd of 440 nM.
